Measured values taken from patent publication US20220054591A1, “METHODS OF TREATING OF INFLAMMATORY BOWEL DISEASE AND PARASITE INFECTION” (President and Fellows of Harvard College, priority 2016, published 2022).
“Also recorded” adds a separate entry of the source.

B1: IL-13: recombinant IL-13 (Biolegend), type 2 cytokine added to organoid media (protein, UniProt P20109 19-131, looked up)
Interleukin-13: APGPVPRSVSLPLTLKELIEELSNITQDQTPLCNGSMVWSVDLAAGGFCVALDSLTNISNCNAIYRTQRILHGLCNRKAPTTVSSLPDTKIEVAHFITKLLSYTKQLFRHGPF
B2: IL-25: recombinant IL-25 (Biolegend; R&D), parasite-induced cytokine, added to organoids or injected i.p. (protein, UniProt Q8VHH8 17-169, looked up)
Interleukin-25: VSLRIQEGCSHLPSCCPSKEQEPPEEWLKWSSASVSPPEPLSHTHHAESCRASKDGPLNSRAISPWSYELDRDLNRVPQDLYHARCLCPHCVSLQTGSHMDPLGNSVPLYHNQTVFYRRPCHGEEGTHRRYCLERRLYRVSLACVCVRPRVMA

Legend:
[1] = system: Tritrichomonas muris; assay: Metronidazole in drinking water of WT (BIH) mice: T. muris abundance in stool DNA by qPCR; type: in vivo; details: metronidazole 2.5 g/L in drinking water for 1 week
Method: (§1) Antibiotic treatment—Mice were treated with metronidazole (2.5 g/L) with 1% sucrose in the drinking water for 7 days. Control mice were given 1% sucrose water over the same time span. Fluid intake was monitored and metronidazole solution was changed 4 days after initiating antibiotic treatment.
Tritrichomonas muris enumeration—The distal 10 cm of small intestine was removed and flushed with ice-cold sterile PBS using a 19-gauge feeding needle. The intestinal contents were then pelleted by centrifugation and stored at −20° C. Genomic DNA was isolated from the stool with QIamp Fast DNA Stool mini kit (Qiagen) according to the manufacturer's directions. To detect and enumerate Tritrichomonas muris, quantitative PCR (qPCR) was performed using KAPPA SYBR fast Universal PCR (KAPPA Biosystems) with the following primers recognizing T. muris 28S rRNA gene: 5′-[…]-3′(SEQ ID NO. 1) and 5′-[…]-3′ (SEQ ID NO. 2). To convert qPCR values into parasite numbers, T. muris trophozoytes were isolated and counted using a hemocytomer before extracting genomic DNA and analyzing by qPCR. […] The T. muris 28S rRNA gene and Eubacteria 16S rRNA gene were amplified by qPCR and T. muris 28S relative abundance was calculated as 2^−ΔCt(28S-16S).

[2] = system: tuft cells; assay: Metronidazole in drinking water of WT (BIH) mice: tuft cell frequency in the epithelium; type: in vivo; details: metronidazole 2.5 g/L in drinking water for 1 week, vs control
Method: as §1
Histology and Fluorescence microscopy —The small intestine was removed and divided into proximal and distal sections before fixation in 4% paraformaldehyde. The tissue was then embedded in paraffin and cut into 5 μm thick sections. For both histology and immunofluorescence, sections were initially deparaffinized and rehydrated. Hematoxylin and eosin (H&E) staining was performed using standard procedures. Goblet cells were identified by alcian blue/nuclear red staining and enumerated along the crypt-villus axis by quantitative microscopy. For immunofluorescence, heat-mediated antigen retrieval was performed in Tris-EDTA buffer 0.05% Tween-20 pH 9.0 for 20 minutes. Afterwards, the slides were washed in PBS and blocked in PBS containing 3% BSA, 3% donkey serum, 0.1% Triton X-100, 0.1% saponin for 1 hour at room temperature. Primary antibodies were incubated overnight at 4° C. and secondary antibodies were applied for 1.5 hours at room temperature. […]

[3] = system: tuft cells in small intestinal organoids; assay: Small intestinal organoids treated with recombinant cytokine: GFP+ tuft cell abundance by flow cytometry; type: cell-based, mice; details: 48 hours; for tuft cells of total organoid cells: IL-13 10 ng/ml, untreated 0.3%; for effect on tuft cell numbers / abundance in organoids (in words): WT and Trpm5-/- organoids, IL-13 10 ng/ml or IL-25 50 ng/ml
Method: Small intestine organoid culture and flow cytometry—Distal small intestinal organoids were prepared as previously described (Miyoshi et al., Nat Protoc. 8, 2471-2482 (2013)). To assess cytokine effects on tuft cells abundance, IL-13 (10 ng/ml, Biolegend, Endotoxin level <0.01 ng/μg) or IL-25 (50 ng/mil, Biolegend, Endotoxin level <0.01 ng/μg) were added to organoid media for 48 hours. To perform flow cytometry, organoids were liberated from the matrigel matrix as described by Miyoshi et al. and digested in DMEM containing 10% FBS, 0.5 units/ml Dispase II (StemCell Technologies), 50 μg/ml DNase (Roche) for 8 minutes at 37° C. The resulting solution was filtered through 40 μm mesh and stained for flow cytometry with APC-conjugated anti-EpCam (clone G8.8, Biolegend) with cell viability assessed with PI (Biolegend).

[4] = system: DCLK1 and Trpm5 expression in organoids; assay: Small intestinal organoids treated with cytokine: gene expression by RT-qPCR; type: cell-based, mice; details: IL-13 treated organoids
Text: RNA isolation and RT-PCR for in vivo and vitro tuft cells—Epithelial cells from Gfi1b^EGFP/+ mice were isolated and stained for Fluorescence Activated Cell Sorting (FACS) as previously detailed. Tuft cells were sorted based on GFP^+EpCam^+CD45^−PI^− while the remaining epithelial cells were GFP-EpCam^+CD45^−PI^−. RNA was then extracted from tuft cells and the remaining epithelium using RNeasy Micro Kit (Qiagen). Whole intestinal organoids were initially stored in RNAlater solution (Ambion) before extracting RNA using Qiazol (Qiagen) according to the manufacturer's directions. cDNA was synthesized using the iScript cDNA Synthesis Kit (Bio-Rad) and RT-qPCR was performed using the KAPA SYBR FAST Universal qPCR Kit (KAPA Biosystems). […]
Small intestine organoid culture and flow cytometry—Distal small intestinal organoids were prepared as previously described (Miyoshi et al., Nat Protoc. 8, 2471-2482 (2013)). […] The resulting solution was filtered through 40 μm mesh and stained for flow cytometry with APC-conjugated anti-EpCam (clone G8.8, Biolegend) with cell viability assessed with PI (Biolegend).

[5] = system: eosinophils and tuft cells of the distal small intestine; assay: In vivo IL-25 i.p. injections in T. muris colonized Trpm5-/- mice: eosinophils and tuft cells of distal small intestine; details: 0.5 μg IL-25 i.p. daily for 7 days, vs PBS
Method: Epithelial cell isolation and flow cytometry —The distal 10 cm of small intestine was removed and flushed as described above. The intestine was opened longitudinally and gently agitated at 4° C. in PBS, 2% FBS, 5 mM EDTA, 1 mM DTT for 10 min. The tissue was then transferred into prewarmed PBS, 2% FBS, 5 mM EDTA and rotated at 37° C. for 15 minutes followed by vigorous shaking to remove epithelial cells. This was repeated and epithelial cells from both fractions were combined and washed with PBS. The epithelium was then digested in DMEM containing 10% FBS, 0.5 units/ml Dispase II (StemCell Technologies), 50 μg/ml DNase (Roche) for 12 minutes at 37° C. The resulting solution was passed through 40 μm filters and washed with PBS, 2% FBS, 1 mM EDTA. The resulting single cell suspension was initially Fc blocked with anti-CD16/CD32 (clone 93, Biolegend) and then stained with the following antibodies: PacBlue-conjugated anti-CD45 (clone 30-F11, Biolegend), APC-conjugated anti-EpCam (clone G8.8, Biolegend). The cell viability was assessed by propidium iodide (PI) (Biolegend) staining.
Lamina propria cell isolation and flow cytometry—The distal 10 cm of small intestine was collected and epithelial cells were removed as detailed above. […]

Molecule | T. muris levels in stool (T. muris 28S rRNA relative to eubacteria 16S rRNA) [1] | tuft cell abundance / frequency in the epithelium [2] | tuft cells of total organoid cells ([3]; Trpm5-/- organoids) [%] | effect on tuft cell numbers / abundance in organoids (in words) [3] | tuft cells of total organoid cells ([3]; WT organoids) [%] | expression of Dclk1 in organoids [4] | expression of Trpm5 in organoids [4] | distal small intestinal eosinophilia [5] | tuft cell abundance in distal small intestine [5]
Cc1ncc([N+](=O)[O-])n1CCO [metronidazole] | eliminated T. muris; also recorded: below the limit of detection | reduced tuft cell abundance; also recorded: reduces tuft cell frequency |  |  |  |  |  |  | 
B1 |  |  | 10.9 | increases tuft cell abundance | 11.9 | increased | increased |  | 
B2 |  |  |  | did not increase tuft cell numbers |  |  |  | restoration | restoration
